Laboratory results as given in the DeepSol protein solubility set.

Experiment: soluble on expression in E. coli; label from the status in PepcDB or PDB records

Row | Sequence | soluble on expression in E. coli
1 | MSLENLNIENWPVDRLHHSEHATRRNEDAIPRMVDALRMFGFRIPLLVTGAGEVVDGHLRLKAALVMGMASVPVIVVDDMTPTQVRTFRLLINRSATWAEWDDEALRVELASLRDYGVDVTMTGFADAELDAFLQGVSLAGESDPDMVPPLPETPTSRPGDVWNMGGHRLLCGDSTSVEDVVRLMAGEQADMLWTDPPYNVDYSGKAGKIRNDKMSPEDFDAFLLRLLSRSYEALADGAAAYVAHSEAGGGTAFRKAFAHAGYKLASCLIWRKHQLVLGRGDYHWQHEPILYGWKPTGKHRWYGNRKHTTLLEHFAGQTVLPAGEGVWQVATGDAVLLIRGQDVTVEEVSTSILAVAKPARSELHPTMKPVALVERMVANSSPRGGLVLDPCGGSGTTLIACERMGRRCNTMELDPRFADVIVRRWEEVTGKTAVLEGGASFADVPLAREVAHEGHHHHHH | soluble
2 | MSLHDLLLRNVRPMAGEACDIMIRNGKITGFGKFDAEPGLPVEDGKGAIAVPGLIDAHTHLDKTTWGMPWHVNNRAAILRERIDFERENRVQIGIDPHRQSMRHAIGLAANGGTHIRSHVDIDPTHGLKLVEGIWETREKLDGIIDIEVVAFPQSGVMVMPGTVELLDEALKQGCEVLGGIDPCGIDRDPKGQLDILFQLATKHGVPIDIHLHEAADLGAFTMELIFERIRANGMQGNVAISHAFALGMNDYLRVGRLIDEIARLDVAILTTGAPSASVPSIMRLKEAGVRVGGGCDGIRDTWGPWGQPDMLDRAKIIGMKNGLRSDVELAHVLHVVSRGGADVMGIEDYGMEIGCAADFTLLTGETLAHAVVDITPRPLVVKGGRVTARNGKAIVEAPEGHHHHHH | not soluble
3 | MDLHELTARLHAIRDRNDWRQFHSPKNLAMAASVEMAELVEIFQWLTEDQSRTLSAEQLEHAGQEVGDIVLYLLLFCGETGLDLEQVVRAKLADCERRFLP | soluble
4 | GMQQPTASVVSYVAEYHKATETTMGRYKKVIEITGHDEVAAKLLEGLIDAGTRYFSKVVEMEHRMASARFRLDGEELRELTETLDRSRRLAHESLISSLHVFNRYIVKEYGEELKEAGIEGGIFPKPEANRDRIAIADWAGELLTGIYENRHR | soluble
5 | SLESYLRLSEVDKQILHSHALMLDGLGNFFGSTHEVILHSLENLESSAIKVINGHFSNRKEGAPITDMALKMLSQVESEHDYAVKPYYNKNQKGVILKSSTIPVIGENDRIIGLICINMHLEMPLIDYLQDLLPSGQQNDMSQELKNSEHFSDNIDELITTSLTKVKQAVESDPNVSHLNQNKEIVIRLYDQGIFNLKDSVIKIADRLGISKNTIYLHIRNHKKEEA | soluble
6 | GPGSMLRLSASRRSAQNILHDIQAAVESRSIMATSSFAQRRSFLVALSEELHRNSEHIIHANRRDCDLFGRQQQQRGTPSVTIPPTLPSTSAATSLQPSSSLHGGPAGYPPFLGRPGHRVGDAQGISVAAENPATATPAPNAAEGSGASSPRRQSSLDYVAGASPVGSPDPNGAGGAAAGGRAAASPAGAGPALGETAAGSRATSTSGTAAPVSPSRWAARASSASLQLVPTAVSGHATRTEAGGGGGHLLITPDNHFLISPLRLDKLHTTIEYLLCQPDPIAIPPSCWLHDSAEGDSGAAANSLREQGSLGAAPGHNSPPPPSAAGSHAGCGRCTRRTDRLEVYELSVPLGMVGILSRFRPRISIDTVAMGLFAGNTVLLDGGVSLYNTNMALMSSVRRALTTAGLSPSAVVCVESYDAAHRSTSEWLQLSDCVDLAVVCGPPKLYQFASRYSTIPLMRATGQFSSVYVDQSASFEVALEVILNSKFQKLGAANAVTTVIVHSDFPRYTELVLALAAEGAVLLGDVTAQERVPDCVLELASEEEYQGLSQYGLRDAARTLCLKTVDSLAQALFFIESFGSKQSDCIVATDLEVCATYCRHVDTAVALVNASTRLSSGVPLGCGVDFAISTSKTHCRGPLTVEMMTTRKLVARSLSAHHGALR | not soluble
7 | GGDGNITTENIPVSEYDCLELEGGGMVVNYTQSDAPEGLEIKTDRNIFEKYEFNVENHKLKIRPKKEFRKHTNFRPTEFMVTANSRNLKKLAAAGSTHVNINSPLQAEEFEAGLAGSGIIQFHDTASFTNLKIEIAGSGDFVGHKVYCEELNGDMAGSNTIVLGGTVGIAEFSIAGSGTVRAFDCTMDELECKIAGSGDIEAFVVNKIKAEIAGSGSVKYKGDPQDIQKKVMGSGKIEKVE | soluble
8 | SLRAFRRATDVKTMAALDIQISVEAEGWSSEENLAAFATKVLNAAVDFLKREEEQPFPKMPVELSLVFTDDENIREINAEWRDKDKATNVLSFPAFPLEPGGMPGPMLGDIVIARETVEREALELDKSFEDHLTHLLVHGFLHLFGYDHMDEEEAEEMESLETRILAVLGLSDPYAGQE | not soluble
9 | MSLAIKLIAIDMDGTLLLPDHTISPAVKNAIAAARARGVNVVLTTGRPYAGVHNYLKELHMEQPGDYCITYNGALVQKAADGSTVAQTALSYDDYRFLEKLSREVGSHFHALDRTTLYTANRDISYYTVHESFVATIPLVFCEAEKMDPNTQFLKVMMIDEPAILDQAIARIPQEVKEKYTVLKSAPYFLEILDKRVNKGTGVKSLADVLGIKPEEIMAIGDQENDIAMIEYAGVGVAVDNAIPSVKEVANFVTKSNLEDGVAFAIEKYVLNEGGSHHHHHH | soluble
10 | MSLNRIAFSAAHVVADPLAASDPWLEAAIDWDHTIAYRQRLWDLGLGVAEAMDTAQRGMGLDWPTSLDLIRRSVEAAKAHGPEALVFSGAGTDHLAPEAARSLDDVIRAYEEQVAAVEKVGGRIILMASRALARIGTSAADYETVYGRILSQVREPVIIHWLGDMFDPALAGYWGTRDLDAAMDTAVAIINAHAAKVDGVKISLLDKDKEIAMRRRLDPAVRMYTGDDFNYAELVAGDAQGYSHALLGIFDAIAPAASAALTALAAGDEAGFHDILAPTVPLSRHIFRAPTRFYKTGVVFMAYLNGHQDHFTMVGGQESARSTLHLAELFRLADRAGLLTDPDLAVQRMRAVLAVRGVEAEGHHHHHH | not soluble
11 | MMISLYSAATGMSAQQFKLDTIANNLANVDTTGYKKVRAEFQDLLYQYVKNAGTPTAATSSLPTGLYVGHGVRTAATTRIFTLGNFEQTGNALDLAIAGDGFFQIQLQDGRIAYTRDGSFKMDSEGRIVTSNGLLLVPEITIPENAVSINVSPDGIVSAELQDGTIQELGTITLVRFVNPSGLKSIGDNLYIATPASGDPIEGVPGQDGFGAIKQGFLEKSNVDVVREMVDMITAQRAYEFNSRVIQTADEMLRTATNVKR | soluble
12 | ENVLTQSPAIMSPSPGEKVTMTCRARSSVSSSYLHWYQQKSGASPKLWIYSTSNLASGVPARFSGSGSGTSYSLTISSVEAEDTATYYCQQYSGNPWTFGGGTKLEIKRADAAPTVSIFPPSSEQLTSGGASVVCFLNNFYPKDINVKWKIDGSERQNGVLNSWTDQDSKDSTYSMSSTLTLTKDEYERHNSYTCEATHKTSTSPIVKSFNRNEC | soluble
13 | ASMTGGQQMGRGSGSEFMENETHYAEAVIDNGAFGTRTIRFETGRLARQAAGSAVAYLDDDTMVLSATTASKNPKDQLDFFPLTVDVEERMYAAGKIPGSFFRREGRPSEDAILTCRLIDRPLRPSFKKGLRNEIQVVATIMALNPDHLYDVVAINAASASTQLAGLPFSGPIGGVRVALIRGQWVAFPTHTELEDAVFDMVVAGRVLEDGDVAIMMVEAEATEKTIQLVKDGAEAPTEEVVAAGLDAAKPFIKVLCKAQADLAAKAAKPTGEFPVFLDYQDDVLEALSAAVRPELSAALTIAGKQDREAELDRVKALAAEKLLPEFEGREKEISAAYRALTKSLVRERVIAEKKRIDGRGVTDIRTLAAEVEAIPRVHGSALFERGETQILGVTTLNMLRMEQQLDTLSPVTRKRYMHNYNFPPYSVGETGRVGSPKRREIGHGALAERAIVPVLPTREEFPYAIRQVSEALGSNGSTSMGSVCASTMSLLNAGVPLKAPVAGIAMGLISQEINGETHYVALTDILGAEDAFGDMDFKVAGTKEFVTALQLDTKLDGIPASVLAAALKQARDARLHILDVMMEAIDTPDEMSPNAPRIITVKIPVDKIGEVIGPKRQMINQIQEDTGAEITIEDDGTIYIGAADGPAAEAARATINGIANPTSPEVGERILGSVVKTTTFGAFVSLLPGKDGLLHISQIRKLAGGKRVENVEDVLGVGQKVQVEIAEIDSRGKLSLIPVIEGEEAASDEKKDDAEQ | soluble
14 | MAPLNYKTITSRSILSKVLVRATQQWPTDKTLNKQLSELYGAYVNSFVSKFKDKHVITISLEVVNEKFLKDKTPLFEKGLDTLKEIIWNPLIKDRCFDHTYVAQEKSLLSKKLEAMEDNKAQYSFLQLMNYMFKQEPYRYIATGQLEQIPQVTSESLYDTYLSMVQNDDCAIYVVGNINKEEVTQLILDKFAIKPFYLENKESTEITPSFDQPQYIIEKDDVDQAKLNLGYRFPSYYGKSNYYAFIVLNMMFGGDPSSVLFNEVREKQSLAYSIHSQIDGKNGFLFVLSGVSAEKYEQAKDTVIKEFDKIKNGDFDSNKIELAKKIIISHRHEASDRPKSIIEILHNQLLLNRQQTDQDFINAVNQVTKKDVIKLANEAVLDTIYVLTKGDQH | not soluble
15 | SISTARVPADKPVRIAFSLNDASDDTPPEDSIPLVFPELDQQLQPLPPCHDSEESMEVFKQHCQIAEEYHEVKKEITLLEQRKKELIAKLDQAEKEKVDAAELVREFEALTEENRTLRLAQSQCVEQLEKLRIQYQKRQGSS | soluble
16 | MGSDKIHHHHHHSEDINRNPLLPTKEDEKMDGVIYGAYLPNLEKSVIPIGTASESTEPVNRYQIGVNLAGDAWAGYMSPRDNKFNGSKNFTNYFMYENWVNYVYSFMVTDVYSPWMQIKRISQDEGTRNDEIYALAQIIKIAALHRTTDMFGPIPYSQVGKGSFKVAYDSQESVYRSFLKELEEAVQTLDDYSNKSKEVLPAFDIVYNGDVNKWMRFANSLMLRLAIRVRFADAGLAKEYAEKAVKHPAGLINSKELAAQMGKGAGLQMKNPLKVINEEYNDTRMGATIYSYLAGYNDARAAVYFVKNNGFKAVRCGIAKSGDAYNGFTRPNVHEDDPLYWMKASEVCFLKAEGALAGFDMGGSAGDFYNAGIRMSFSENGLDNSSAETYLKDSTRKPANYTDTSNGELSANAPSSITIRWENGATEEEKLERIITQKYLAIFPNGQEAWTEWRRTGYPRQIVVAENKTNSAVLIGNGYDLGGVRRLPYPRTEYEQNGENLHNAISQYLGGVDNAATKVWWDKKSK | not soluble
17 | MARLLMIPGPTPVDPEVLLAMARPVISHTSPDFDEIHGETVSMLQKLFRTSGKVFLLPGSGSLGMEFAVRSVAGRGSRALVLKAGYFGGYFERILRSLGASVTVVESPVGRGFTGADVEEALDRAGDVDVVFVQHVETSTSVANPVREIAGVVKKNGARLVVDGIASVGGMDLRLDEWGVDVALTGSQKALSTPPGLAIVAFSSEYSVELEKREPSGIYFDFLSLSREMESTRNYHITPAVNLVFALNASLKRILGEGLENRFERHRVLARAFTRAMEALGLRLVAEEPFRAWTVTAVYLPQGIDWSRFYSVMRKRGVEVAGGLGGLKGKIFRVGHMGEVDANDLIATIAAIERSLVELGYREARLGQGLEAAQKELSSLGL | soluble
18 | MQEKPQEPKVVGVEILEKSGLDIKKLVDKLVKATAAEFTTYYYYTILRMHLTGMEGEGLKEIAEDARLEDRLHFELMTQRIYELGGGLPRDIRQLADISACSDAYLPENWKDPKEILKVLLEAEQCAIRTWKEVCDMTYGKDPRTYDLAQRILQEEIEHEAWFLELLYGRPSGHFRRSSPGNAPYSKK | soluble
19 | MGSDKIHHHHHHMKYISPGDWFSLEYPMGWHEFEDTEESFLFYNPDRWTGNFRISAYKDEAADYGPQCIAYELKENTSSALVKVGKWDCAYSAETFQEEGAWYTTHIWVTGEGDLSFECSFTVSKGGDKHPAEEIIRSLQVRKEGVSHPREIIPIRVLEIGEVNTAFEWASTTIKKQLTKDFTASESDIDSIQQVMDSGRFQTQQRMAWENFGIAFGAILVNEMEGMEWVTVIEGQKEYPALQFMCSDMVLDPAALVWGKAKKGLPCDLKSEFRKIKREAEAVLDDLNK | not soluble
